Measured values as given in patent US5385885A, “Inhibition of smooth muscle cell proliferation by antistasin and tick anticoagulant peptide” (priority 1991, dated 1995).

Assays:
[1] = tested on: rat aortic smooth muscle cells; experiment: Mitogenic activity of blood coagulation factors on smooth muscle cells (3H-thymidine incorporation); format: cell-based, Wistar rats; conditions: 24 h
Method: Primary smooth muscle cell cultures were prepared from the thoracic and abdominal aorta of 2-3 month old Wistar rats essentially using the procedure of Reilly, C. […] After removing as much fat and adherent adventitia as possible with scissors and forceps, the tissue was finely minced, enzymatically dissociated with successive 37° C. incubations in HBSS containing collagenase (Sigma, 0.5 mg/ml for 15 min.), then elastase (Sigma, 0.125 mg/ml for 30 min.) and again collagenase (60 min.). […] Cells were grown in Dulbecco's Minimal Essential Medium (DMEM) containing 10% fetal bovine serum (FBS) with antibiotics. […] Using a monoclonal antibody to alpha actin (Sigma Chemical Company, St. Louis, Mo.), about 60-80% (preparation dependent) of these confluent cells stained positive for this smooth muscle cell marker. After 10 days in culture, the cells were dissociated with trypsinethylene diamine tetraacetate (EDTA), split 1:10 and subcultured in the above medium. At confluence the cells were transferred to DMEM containing 0.1 % FBS for a 24 hour period before using them for assay. All smooth muscle cells used in these studies were from passages 1-4.
The prepared rat smooth muscle cells were seeded in Falcon 24 multiwell plates (10^5 cells/well) and cultured at 37° C., in a 5% CO2 atmosphere in 1 ml DMEM containing 10% FBS. […] At the end of the incubation, the cultures were washed twice with DMEM and pulsed for two hours in ^3 H-thymidine (1 μCi/ml) in DMEM containing 0.1% BSA. The cells were washed twice with cold phosphate buffered saline (PBS), treated twice with 5% trichloroacetic acid (TCA) for 5 min., dissolved with 0.25N NaOH (0.4 ml) incubated at 37° C. for 60 min., mixed with 5 ml Ecolume (ICN Biomedicals, Costa Mesa, Calif.), and their radioactivity determined in a scintillation counter. All assays were in triplicate. Error bars represent the standard error of the mean (S.E.M. with n=6 or more experiments). Smooth muscle cell mitogenic activity produced by exogenous agents is expressed as % relative mitogenic activity which is defined as: [formula] […]

[2] = tested on: rat aortic smooth muscle cells; experiment: Comparison of 3H-thymidine incorporation and cell proliferation in rat aortic smooth muscle cell cultures; format: cell-based; conditions: 10 mM factor, 36 hours treatment
Method: Rat smooth muscle cells were incubated with different blood coagulation factors to determine ^3 H-thymidine incorporation and effect cell number. […] At the end of the incubation, half of the groups were pulsed with ^3 H-thymidine for two hours while their identically treated counterparts were dissociated with trypsin and the cells (smooth muscle cells on the basis of a reddish-brown staining pattern with Masson's trichome) were counted. Although there was not a direct correspondence between the per cent increase in thymidine incorporation and cell number, the increase in DNA synthesis correlated well with an increase in cell number. bovine factor Xa increased cell proliferation in a dose dependent manner. 10 mM Protein S induced greater cell proliferation than 50 mM bovine factor Xa.

[3] = tested on: 3T3 cells; experiment: Direct antistasin treatment of 3T3 cells, proliferation; format: cell-based
[4] = tested on: human venous endothelial cells; experiment: Release of mitogens from endothelial cells stimulated with factor Xa; conditioned media tested for mitogenic activity on 3T3 cells; format: cell-based; conditions: for Mitogenic units of EC conditioned media: 1 unit = activity induced by 2 ng/ml PDGF, FXa 1 nM, ATS 5 nM, PDGF 2 ng/ml, 16 h
Method: Confluent primary cultures or subcultures (passages 1 and 2) of human venous endothelial cells (EC) were cultured in serum-free Dulbecco's Minimal Essential Medium (DMEM)+0.1% bovine serum albumin (BSA) in the presence of human or bovine factor Xa(1 nM) (Sigma Chemical Co., St. Louis, Mo.), antistasin (ATS) (0.5-5.0 nM), or both. Control cultures were untreated or received 2 ng/ml platelet-derived growth factor (PDGF) (Sigma Chemical Co., St. Louis, Mo.). After 16 hours incubation at 37° C., the conditioned media (CM) from the test and control cell cultures were collected and tested for mitogenic activity (MIT) using confluent NIH 3T3 cells (CCL 163, American Type Culture Collection, Rockville, Md.).
Primary cultures of EC derived from umbilical cord veins were prepared and grown according to a protocol provided to by Dr. Gwendolyn Stewart (Temple University Thrombosis Center, Phila., Pa.). After washing the lumen of the vein twice with DMEM, EC were dissociated with a solution containing 0.05% trypsin and 0.1% collagenase. Thirty minutes later, the venous content and the perfused DMEM (35 ml) was collected into a fifty ml centrifuge tube containing 3.5 ml of bovine serum and the mixture spun at 900 rpm for 10 minutes. The supernate was discarded and the cell pellet resuspended in 3.0 ml DMEM containing 20% fetal bovine serum (FBS) (heat inactivated at 56° C. for 30 minutes), 90 μg heparin per ml, 5 μg fibronectin per ml, and 60 μg endothelial growth factor per ml (cDMEM), and seeded into 35 mm tissue culture dishes. After 24 hours of incubation at 37 °C, 5% CO2, the culture was washed 3-4 times with DMEM and incubated 2-4 days until the cells were confluent. The monolayers were washed with phosphate buffered saline (PBS) and cultured in DMEM with 0.1% BSA in the presence and absence of 1 nM factor Xa, 5 nM antistasin, or a mixture of both. As positive and negative controls, separated monolayers were incubated with the medium plus 2 ng/ml PDGF or with the medium alone. After 16 hours of incubation at 37° C., conditioned media (CM) were collected, centrifuged at 4000×g for 10 minutes, and the supernate was collected and stored at 4° C. until use. The mitogenic activity of the CM was tested by measuring the incorporation of [^3 H] thymidine into cultures of Balb 3T3 cells. For this purpose, wells were seeded with 2×10^4 3T3 cells suspended in 1 ml DMEM with 10% FBS. Once confluent (5-7 days of culture), CM were added and cells incubated for 18 hours at 37° C. after which cultures were washed with warm DMEM, tritiated thymidine added (1 μCi/ml) and cells incubated for 4 hours at 37° C. After removing the medium, the culture was washed twice with cold 5% trichloroacetic acid (TCA), and lysed with 0.8 ml 0.25M NaOH. The lysate was transferred to vials with scintillation fluid and radioactivity monitored in a beta radiation counter.
One unit of mitogenic activity is defined as the mitogenic activity induced by 2 ng/ml PDGF. Each assay was performed in triplicate and the standard deviation was less than 10%.

[5] = tested on: smooth muscle cells; experiment: Effect of factor Xa inhibitors on human protein S and bovine factor X induced smooth muscle cell mitogenesis; format: cell-based, rat; conditions: FIG. 3
Method: Primary smooth muscle cell cultures were prepared from the thoracic and abdominal aorta of 2-3 month old Wistar rats essentially using the procedure of Reilly, C. F. (1990) J. Cell Physiol. 142,342 (1990). After removing as much fat and adherent adventitia as possible with scissors and forceps, the tissue was finely minced, enzymatically dissociated with successive 37° C. incubations in HBSS containing collagenase (Sigma, 0.5 mg/ml for 15 min.), then elastase (Sigma, 0.125 mg/ml for 30 min.) and again collagenase (60 min.). […] Cells were grown in Dulbecco's Minimal Essential Medium (DMEM) containing 10% fetal bovine serum (FBS) with antibiotics. […]
(§1) The prepared rat smooth muscle cells were seeded in Falcon 24 multiwell plates (10^5 cells/well) and cultured at 37° C., in a 5% CO2 atmosphere in 1 ml DMEM containing 10% FBS. […] The cells were washed twice with cold phosphate buffered saline (PBS), treated twice with 5% trichloroacetic acid (TCA) for 5 min., dissolved with 0.25N NaOH (0.4 ml) incubated at 37° C. for 60 min., mixed with 5 ml Ecolume (ICN Biomedicals, Costa Mesa, Calif.), and their radioactivity determined in a scintillation counter. […] Smooth muscle cell mitogenic activity produced by exogenous agents is expressed as % relative mitogenic activity which is defined as: [formula] […]

[6] = tested on: smooth muscle cells; experiment: Effect of antistasin and tick anticoagulant peptide on factor Xa induced mitogenesis of smooth muscle cells; format: cell-based, rat; conditions: FIG. 2
Method: Primary smooth muscle cell cultures were prepared from the thoracic and abdominal aorta of 2-3 month old Wistar rats essentially using the procedure of Reilly, C. F. (1990) J. Cell Physiol. 142,342 (1990). After removing as much fat and adherent adventitia as possible with scissors and forceps, the tissue was finely minced, enzymatically dissociated with successive 37° C. incubations in HBSS containing collagenase (Sigma, 0.5 mg/ml for 15 min.), then elastase (Sigma, 0.125 mg/ml for 30 min.) and again collagenase (60 min.). […] Cells were grown in Dulbecco's Minimal Essential Medium (DMEM) containing 10% fetal bovine serum (FBS) with antibiotics. […] Using a monoclonal antibody to alpha actin (Sigma Chemical Company, St. Louis, Mo.), about 60-80% (preparation dependent) of these confluent cells stained positive for this smooth muscle cell marker. After 10 days in culture, the cells were dissociated with trypsinethylene diamine tetraacetate (EDTA), split 1:10 and subcultured in the above medium. At confluence the cells were transferred to DMEM containing 0.1 % FBS for a 24 hour period before using them for assay. […]
as §1
The effects of antistasin and tick anticoagulant peptide on factor Xa induced mitogenesis of smooth muscle cells were tested using the method shown in Example 4. […] At the end of the 24 hour incubation, ^3 H-thymidine incorporation into DNA was monitored and smooth muscle cell mitogenic activity was assessed as described in Example 4.

[7] = FIG. 1, 10 nM coagulation factor

B1: Factor IX: bovine coagulation factor IX (protein, UniProt P00741 26-462, looked up)
Coagulation factor IX: AECTVFLDRENATKILHRPKRYNSGKLEEFVRGNLERECKEEKCSFEEAREVFENTEKTTEFWKQYVDGDQCESNPCLNGGMCKDDINSYECWCQAGFEGTNCELDATCSIKNGRCKQFCKRDTDNKVVCSCTDGYRLAEDQKSCEPAVPFPCGRVSVSHISKKLTRAETIFSNTNYENSSEAEIIWDNVTQSNQSFDEFSRVVGGEDAERGQFPWQVLLHGEIAAFCGGSIVNEKWVVTAAHCIKPGVKITVVAGEHNTEKPEPTEQKRNVIRAIPYHSYNASINKYSHDIALLELDEPLELNSYVTPICIADRDYTNIFLKFGYGYVSGWGKVFNRGRSASILQYLKVPLVDRATCLRSTKFSIYSHMFCAGYHEGGKDSCQGDSGGPHVTEVEGTSFLTGIISWGEECAMKGKYGIYTKVSRYVNWIKEKTKLT
- % relative mitogenic activity above control [1, 7]: only weakly mitogenic

B2: protein S: human protein S, coagulation cascade factor (Enzyme Res. Labs) (protein, UniProt P07225 42-676, looked up)
Vitamin K-dependent protein S: ANSLLEETKQGNLERECIEELCNKEEAREVFENDPETDYFYPKYLVCLRSFQTGLFTAARQSTNAYPDLRSCVNAIPDQCSPLPCNEDGYMSCKDGKASFTCTCKPGWQGEKCEFDINECKDPSNINGGCSQICDNTPGSYHCSCKNGFVMLSNKKDCKDVDECSLKPSICGTAVCKNIPGDFECECPEGYRYNLKSKSCEDIDECSENMCAQLCVNYPGGYTCYCDGKKGFKLAQDQKSCEVVSVCLPLNLDTKYELLYLAEQFAGVVLYLKFRLPEISRFSAEFDFRTYDSEGVILYAESIDHSAWLLIALRGGKIEVQLKNEHTSKITTGGDVINNGLWNMVSVEELEHSISIKIAKEAVMDINKPGPLFKPENGLLETKVYFAGFPRKVESELIKPINPRLDGCIRSWNLMKQGASGIKEIIQEKQNKHCLVTVEKGSYYPGSGIAQFHIDYNNVSSAEGWHVNVTLNIRPSTGTGVMLALVSGNNTVPFAVSLVDSTSEKSQDILLSVENTVIYRIQALSLCSDQQSHLEFRVNRNNLELSTPLKIETISHEDLQRQLAVLDKAMKAKVATYLGGLPDVPFSATPVNAFYNGCMEVNINGVQLDLDEAISKHNDIRAHSCPSVWKKTKNS
- % relative mitogenic activity above control [1, 7]: about 122%
- SMC Number [2]: 6.5 × 10^5
- CPM Incorporated (3H-thymidine) ([2]; 2 h pulse): 30,074 ± 2,837 CPM

B3: antistasin (protein, UniProt P15358 18-136, looked up)
Antistasin: QGPFGPGCEEAGCPEGSACNIITDRCTCSGVRCRMHCPHGFQRSRYGCEFCKCRLEPMKATCDISECPEGMMCSRLTNKCDCKIDINCRKTCPNGLKRDKLGCEYCECRPKRKLIPRLS
notes: 119-amino acid protein isolated from the salivary glands of the Mexican leech Haementeria officinalis
- Effect on proliferation of 3T3 cells [3]: no significant effect
- Mitogenic units of EC conditioned media ([4]; EXP 1): 0.74 mitogenic units
- Mitogenic units of EC conditioned media ([4]; EXP 2): 0.42 mitogenic units
- Mitogenic units of EC conditioned media ([4]; EXP 3): 0.70 mitogenic units
- Mitogenic units of EC conditioned media ([4]; EXP 4): 0.36 mitogenic units
- Release of mitogens from endothelial cells ([4]; antistasin 0.5-10 nM): blocks the release of mitogens
- Inhibition of relative mitogenic activity of bovine factor X ([5]; 10 nM bovine factor X with 50 nM antistasin): not significantly inhibited
- Inhibition of relative mitogenic activity of protein S ([5]; protein S with 50 nM antistasin): abolished
- Relative mitogenic activity above control ([6]; 10 nM fXa and 5 nM antistasin): about 23%
- Relative mitogenic activity above control ([6]; 10 nM fXa and 10-20 nM antistasin): about 2%
- Relative mitogenic activity above control ([6]; 10 nM fXa with 40-50 nM antistasin): near zero

B4: platelet derived growth factor BB: recombinant platelet-derived growth factor-BB, a good mitogen for smooth muscle cells (protein, UniProt P01127 82-190, looked up)
Platelet-derived growth …: SLGSLTIAEPAMIAECKTRTEVFEISRRLIDRTNANFLVWPPCVEVQRCSGCCNNRNVQCRPTQVQLRPVQVRKIEIVRKKPIFKKATVTLEDHLACKCETVAAARPVT
modifications: homodimer
notes: recombinant platelet-derived growth factor-BB, a good mitogen for smooth muscle cells
- % relative mitogenic activity above control ([1]; FIG. 1, 0.1 nM PDGF-BB): about 63%
